What was measured:
[1] = target: T1, His-tagged cynomolgus monkey CD38 (ACRO Biosystems cat # CD8-05223 [sic]) (cynomolgus monkey, UniProt Q5VAN0 43-301); assay: SPR (Carterra LSA), antibody captured by anti-human Fc, His-tagged CD38 injected
T1 construct: Bought His-tagged protein; also called cynomolgus CD38

[2] = target: T2, His-tagged human CD38 (ACRO Biosystems cat #CD8-H5224) (human, UniProt P28907 43-300); assay: as above
T2 construct: Bought His-tagged protein

[3] = target: CD38 on Daudi target cells (UniProt P28907 1-300, limits assumed); assay: cell-based or functional assay

Kd [1]: 3.08 nM
Kd [2]: 0.02 nM
ADCC EC50 [3]: 0.0207 µg/mL
Lowest Remaining Target % [3]: 54%
Max RLU [3]: 1.94e+06 RLU
PBMC ADCC EC50 [3]: 0.000411 µg/mL
B1: 40769p1.1.H10 (antibody, V domains shown)
VH: EVQLLESGGGLVQPGGSLRLSCAAFGFTFSDYEMNWVRQAPGKGLEWVSSISITGSWTGYADSVKGRFTISRDNSKNTLYLQMNNLRAEDTAVYYCANYKSYYGMDVWGQGTTVTVSS
VL: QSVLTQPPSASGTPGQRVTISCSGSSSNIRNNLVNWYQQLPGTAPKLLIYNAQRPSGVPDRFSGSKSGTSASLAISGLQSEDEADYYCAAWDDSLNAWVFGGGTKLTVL
notes: Human V regions from transgenic chicken, cloned as scFv-Fc; The variable domains can be found in the listing by the CDRs
